Experimental findings from paper PMC9588639 (Journal of thrombosis and haemostasis : JTH, 2022) are described below.

What all share (assay): BLI
(In general: Biolayer interferometry detects binding as a change in optical thickness at a sensor tip.)

In test [1] the target is mouse GPIbα LBD (mLBD, residues 1-290) (mouse).
The target in test [2] is human GPIbα LBD (mature protein residues 1-290) W230L (human, UniProt P07359 17-306, W230L).
In test [3] the target is human GPIbα LBD (mature protein residues 1-290) (human).

Sequence of mouse GPIbα LBD (mLBD, residues 1-290) (mouse) (O35930 whole entry, the tested form may be a part): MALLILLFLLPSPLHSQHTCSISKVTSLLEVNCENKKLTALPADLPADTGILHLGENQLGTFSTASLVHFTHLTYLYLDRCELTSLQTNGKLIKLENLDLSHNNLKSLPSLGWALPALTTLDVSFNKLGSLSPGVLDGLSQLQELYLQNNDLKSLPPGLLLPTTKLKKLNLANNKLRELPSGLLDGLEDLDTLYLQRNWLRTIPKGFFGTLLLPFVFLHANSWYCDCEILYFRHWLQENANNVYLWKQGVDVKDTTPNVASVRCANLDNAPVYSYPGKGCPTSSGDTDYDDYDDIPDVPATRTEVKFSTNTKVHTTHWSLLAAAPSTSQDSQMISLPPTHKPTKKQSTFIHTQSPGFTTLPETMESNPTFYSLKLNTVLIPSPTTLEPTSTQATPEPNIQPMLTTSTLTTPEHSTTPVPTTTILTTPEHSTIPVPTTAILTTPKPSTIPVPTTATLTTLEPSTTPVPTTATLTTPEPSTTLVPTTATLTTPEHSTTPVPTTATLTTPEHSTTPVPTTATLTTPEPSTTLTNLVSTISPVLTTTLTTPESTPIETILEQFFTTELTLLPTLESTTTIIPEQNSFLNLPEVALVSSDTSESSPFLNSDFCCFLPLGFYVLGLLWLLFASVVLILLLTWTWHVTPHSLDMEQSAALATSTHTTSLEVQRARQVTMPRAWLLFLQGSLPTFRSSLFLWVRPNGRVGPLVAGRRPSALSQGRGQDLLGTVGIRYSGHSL
Sequence of human GPIbα LBD (mature protein residues 1-290) W230L (P07359 17-306 W246L): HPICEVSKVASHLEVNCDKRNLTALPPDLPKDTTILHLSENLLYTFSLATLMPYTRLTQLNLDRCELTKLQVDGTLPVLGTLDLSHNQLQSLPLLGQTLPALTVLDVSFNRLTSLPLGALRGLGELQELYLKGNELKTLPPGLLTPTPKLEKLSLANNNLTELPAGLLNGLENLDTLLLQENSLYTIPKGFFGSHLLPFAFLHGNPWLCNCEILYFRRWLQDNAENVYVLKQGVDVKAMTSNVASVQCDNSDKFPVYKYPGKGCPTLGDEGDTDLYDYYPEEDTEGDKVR

What is called Kd is the free concentration of one partner at which half of the binding sites on the other are occupied at equilibrium, for simple one-to-one binding. “mouse tAIM-A1 (containing VWF residues 1261-1472) (from UniProt Q8CIZ8 1261-1472) (domain or fragment)”: in test [1], the Kd is 386 nM.

B1: recombinant mouse AIM-A1 protein (mouse VWF residues 1238-1493) (domain or fragment, UniProt Q8CIZ8 1238-1493, looked up)
chain: QEPGGLVAPPTDAPVSSTTPYVEDTPEPPLHNFYCSKLLDLVFLLDGSSMLSEAEFEVLKAFVVGMMERLHISQKRIRVAVVEYHDGSRAYLELKARKRPSELRRITSQIKYTGSQVASTSEVLKYTLFQIFGKIDRPEASHITLLLTASQEPPRMARNLVRYVQGLKKKKVIVIPVGIGPHASLKQIRLIEKQAPENKAFLLSGVDELEQRRDEIVSYLCDLAPEAPAPTQPPQVAHVTVSPGIAGISSPGPKRK
Take B1: in test [2], the binding result was “binds”. In addition, the results for the Kd in test [3] and in test [1] were 515 nM and 1000 nM, respectively.
